Results on two molecules are retold here after publication PMC12630144.

The data set deals with WRKY50 (Arabidopsis thaliana, UniProt Q8VWQ5 1-173). Description: EMSA. In general terms: In EMSA bound probe runs differently from free probe, usually more slowly.
Sequence of WRKY50 (Q8VWQ5 whole entry): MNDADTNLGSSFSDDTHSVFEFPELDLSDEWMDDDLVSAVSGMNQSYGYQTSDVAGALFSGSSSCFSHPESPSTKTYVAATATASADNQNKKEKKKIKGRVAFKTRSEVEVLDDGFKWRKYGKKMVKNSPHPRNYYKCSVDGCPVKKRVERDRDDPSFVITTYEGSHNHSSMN

B1: WK-box consensus probe (dsDNA)
DNA 1: ATCGTCTAGATCGATTTTTCCACACGATGCTAGTCGTCA
DNA 2: TGACGACTAGCATCGTGTGGAAAAATCGATCTAGACGAT
For B1, the binding result is recorded as “binds”.

B2: WT-box consensus probe (dsDNA)
DNA 1: ATCGTCTAGATCGAAAAAGTCAACCGATGCTAGTCGTCA
DNA 2: TGACGACTAGCATCGGTTGACTTTTTCGATCTAGACGAT
Consider B2, for which the binding result is listed as “binds”.
